# According to the DeepSol protein solubility set:
# Assay: soluble on expression in E. coli; label from the status in PepcDB or PDB records
row,Sequence,soluble on expression in E. coli
1,MGSDKIHHHHHHMFMERQDRYYQTYLNILKEELVAAMGCTEPIAIAYGAAKAREVLGAVPHKVVLEVSSNIIKNVKSVVVPNTDGLKGIEAATAAGIIAGRSDKILEVIAEVCQAEKQQIKTYLSETDIEVKLADSQIIFDIMITMFHQDSYVKLRIADYHTHIVHIEKNGEIIFGTGDLDAGISSLTDRKLLSVSKIIEFADSVRIEDVKELLDKQIEYNSAIARAGMEGNYGANVGRVLLKTYGNDVKIRAKAMAAAGSDARMSGCELPVIINSGSGNQGMTASLPVIEYAAELQSGEEKLYRALVVSNLITLHLKTGIGRLSAFCGVICAGCGSGAGIAYLHGGGYDEIAHTIVNAAAIVSGIVCDGAKPSCAGKIAAAVDAGILGYLMYKEGQQFRGGDGIVAKGIENTIANIGYLGKVGMKETDKEIINIMLNQCSS,not soluble
2,GAHMADLSLEKAAEVSWEEEAEHSGASHNILVEVQDDGTMKIKDEERDDTLGGGGSGGGGSGVLWDTPSPGIYRILQRGLLGRSQVGVGVFQEGVFHTMWHVTRGAVLMYQGKRLEPSWASVKKDLISYGGGWRFQGSWNAGEEVQVIAVEPGKNPKNVQTAPGTFKTPEGEVGAIALDFKPGTAGSPIVNREGKIVGLYGNGVVTTSGTYVSAIAQAKASQEGPLPEIEDEVFRK,soluble
3,MSEFLNENPDILEENQLPTRKEDSTKDLLLGGFSNEATLERRSLLLKIDHSLKSQVLQDIEVLDKLLSIRIPPELTSDEDSLPAESEDESVAGGGKEEEEPDLIDAQEIYDLIAHISDPEHPLSLGQLSVVNLEDIDVHDSGNQNEMAEVVIKITPTITHCSLATLIGLGIRVRLERSLPPRFRITILLKKGTHDSENQVNKQLNDKERVAAACENEQLLGVVSKMLVTCK,soluble
4,MSLNQSFTQFGDGYASTGTLNIGDVLDIMIWEAPPAVLFGGGLSSMGSGSAQQTKLPEQLVTARGTVSVPFVGDISVVGKTPGQVQEIIKGRLKKMANQPQVMVRLVQNNAANVSVIRAGNSVRMPLTAAGERVLDAVAAVGGSTANVQDTNVQLTRGNVVRTVALEDLVANPRQNILLRRGDVVTMITNPYTFTSMGAVGRTQEIGFSARGLSLSEAIGRMGGLQDRRSDARGVFVFRYTPLVELPAERQDKWIRQGYGSEAEIPTVYRVNMADAHSLFSMQRFPVKNKDVLYVSNAPLAEVQKFLSFVFSPVTSGANSINNLTNEGHHHHHH,not soluble
5,MINVEQVFALDIGTRLVMGLIMEKAPGGYHIIARAQTEHRQRAMYDGQIHDIEEVAQAVQRVKEELEEKIKGKLHYVSVAAAGRALKTAVATAQKSELIPMIWEREDIFALEMEAVQQALREIQAEDEIIPYHCVGYSTIESLLEGQNLSSLSGQRGKEAQVKVIATFLPRTVIDGLTRVISKVGLEMRELTLEPIAAGRAAIPPDMRRMNLALVDVGAGTSDIALTKSGSFFAYGMVPMAGDEITERICQHFLVDFQTGEKIKRSLNTKTKVTFTDFLGMKTTVNKEEVLEQIQPVVLELAQKLADEILRLNQGNPHAIILIGGGSQTPLLAEVLSDLLELPRNRVGIQVRERIQGVSGEKSLKGPDAITPIGIGISTIEGEGLQYFSVHVNDLTVQIFELQLATVSDALLAAGITPRLLVGRPGSALTVELNGDIKVSKGQFSKPAQFFLNGEEVKLDHELKPGDKIQFIPAQDGENAQATFADLVPAIPEKKIKVNGESVVFTAQIFCNGRPVTRDGDVPDGAKITVFQNQTLKDLLHFLNDKQYSLSEIRYKINGEERVIPIHKEFYINQQKVALERMIKDGDDLVILVKEVYIKDLQLKPTPMVFYVNGQEVEYPPQIFRILSRGRVLSDQEKVVDGMELSVEGYDTMPLLSELLPYVNIPQDVPANARLSLKRNNQEAEFTTPLIPGDRIEIHWEQVASALLEHHHHHH,soluble
6,MCLGVPAQIAEIHDSTRATVSMSGVSRMVSTDLLAETIDVGDWVLIHVGFALSKIDEDEAAVTLQQIKQLGGFDEELQSFESSEI,not soluble
7,MMHISVGATEMSWLSSLKSVFSPSQEVKEDDVQTILQSYSLENSSFVLKDRITQINVEGRILQLTIKTFPEEADHLQQIHDELADALQKAGIQELNLHVIQQKTAPRTEPKSSSSTTSSSSHLPPVVDASASPTPDPNNPPIQKKAPIQSEVPAHPRIKNVILVSSGKGGVGKSTTTVNLALALQKQGLKVGVLDADIYGPSIPTMLGNAGRTPKIENENFVPLDAYGLAVLSIGHLTGDNNTPVAWRGPKATGALMQLFNQTLWPDLDVLVIDMPPGTGDIQLTLAQRIPVTGALIVTTPQNVALLDASKGIELFNRVGIPVVGVIENMSTHICSNCGFEEQIFGVGGGDKLSEQYDIPLLGRLPLNAQIRENADKGQPSVIAQDTAAESYQMIAQALWTRVEQLPQRARDDKRIFLEHHHHHH,not soluble
8,MALASAADFFAQQHPSYGRHIGQLYERAVKNDLSFTHTFVNPQVNRSLGYMEEDGEPIAAKVVRETADGLIIKGARLLATQGGMTDELLVLPAGGALLGDEYMYAFSIPSNAPGLKFVCRPSLAAGALVFDAPLSSRFDEIDAMVVFDEVLVPWDRVFFYKNAWFAKEMEEETHLAIMLLHQVLARRIVKTEFFLGTVELLSEAIQIGGYQHVQEKIGEIAAALEALRGMLLASELHAKPDRRGTMVPDPAPLYAAAFLYPRLYPRFADIIQLLGASGLVCLPTEADFSSPLRPDLDRYLQAATLPAEQRVRLFRFAWDMAMSAFGTRQTLYERFFFGDPARFATTFYHRYDREACAEIVRQFLDSEQR,not soluble
9,FLRDAPKHLNPDGEIRLIISDLAEHLHLRPSDFLDKAFAQAGLRVADMMKTKPKHKKAANPSDPLAFARTRETTFLYRLKKA,not soluble
10,MTVTYIGHSGFLLETEDAYFLFDYFEGTIPELKNNKSIIVFSSHRHHDHFNPEIFELIKIYPDIRYVLSYDIPLKRHLKKYENQGIDLAKNILITKKNIETMLKLPNGKDLKISTFRSTDEGVAFLLEYDNKVYYHAGDLNCWYWKEEPKSYRNNMIQLYIREIQKMDNLKIDVAFVPLDPRLEETAYEGLEIFMEHTNPQIVFPMHCWGKYDIISSFLNKHPEYKEKIRMINNEGQIFNV,not soluble
11,MEDLEEDVRFIVDETLDFGGLSPSDSREEEDITVLVTPEKPLRRGLSHRSDPNAVAPAPQGVRLSLGPLSPEKLEEILDEANRLAAQLEQCALQDRESAGEGLGPRRVKPSPRRETFVLKDSPVRDLLPTVNSLTRSTPSPSSLTPRLRSNDRKGSVRALRATSGKRPSNMKRESPTCNLFPASKSPASSPLTRSTPPVRGRAGPSGRAAASPPTPIRSVLAPQPSTSNSQRLPRPQGAAAKSSSQLPIPSAIPRPASRMPLTSRSVPPGRGALPPDSLSTRKGLPRPSTAGHRVRESGHKVPVSQRLNLPVMGATRSNLQPPRKVAVPGPTR,soluble
12,FSGSEATAAILSRAPWSLQSVNPGLKTNSSKEPKFTKCRSPERETFSCHWTDEVHHGTKNLGPIQLFYTRRNTQEWTQEWKECPDYVSAGENSCYFNSSFTSIWIPYCIKLTSNGGTVDEKCFSVDEIVQPDPPIALNWTLLNVSLTGIHADIQVRWEAPRNADIQKGWMVLEYELQYKEVNETKWKMMDPILTTSVPVYSLKVDKEYEVRVRSKQRNSGNYGEFSEVLYVTLPQMSQ,soluble
13,MGSDKIHHHHHHMSATEKRRYEVLRAIVADYIASQEPVGSKSLLERHKLNVSSATIRNDMSVLESDGFIVQEHASSGRVPTERGYRLFVDSIHDIKPLSLAERRAILGFLEGGVDLEDVLRRSVQLLSQLTHQAAVVQLPTLKTARVKHCEVVPLSPMRLLLVLITDTGRVDQRNVELEEPLAAEEVNVLRDLLNGALGEKTLTAASDALEELAQQAPTDIRDAMRRCCDVLVNTLVDQPSDRLILAGTSNLTRLSRETSASLPMVLEALEEQVVMLKLLSNVTDLDQVRVHIGGENEDIELRSATVITTGYGSQGSALGGLGVVGPTYMDYSGTISKVSAVAKYVGRVLAGE,not soluble
